From PMC12813979, “A Site-Specific Self-Association of a Protein Hub Drives Its Phase Separation” (ACS Chemical Biology, 2025)
* marks the point of attachment. Biotin = O=C1N[C@H]2[C@H](CS[C@H]2CCCCC(=O)*)N1

How the values were obtained:
[1] = molecular target: N-terminus truncated WDR5, WDR5 23-334 (human, UniProt P61964 23-334); experiment: BLI; biotinylated MLL3Win peptide immobilised on streptavidin sensors; WDR5 (0.11-9.0 µM) or ΔN-WDR5 (0.10-9.0 µM) in the wells; 150 mM KCl, 20 mM Tris-HCl, 1 mM TCEP, 1 mg/mL BSA, pH 7.5; global fit of kon and koff, KD derived indirectly from them; triplicates; settings: both partners purified
[2] = molecular target: WD40 repeat protein 5 (WDR5), full-length (human, UniProt P61964 1-334); experiment: as above; settings: both partners purified

Kd [1]: 170 nM | koff [1]: 0.0097 s⁻¹ | kon [1]: 63000 M⁻¹ s⁻¹ | Kd [2]: 190 nM | koff [2]: 0.012 s⁻¹ | kon [2]: 66000 M⁻¹ s⁻¹
B1: Win-like motif-based peptide ligand of mixed lineage leukemia 3 (MLL3Win) (peptide)
chain: Biotin-VNPTGCARSEPKMS-NH2
SMILES: CSCC[C@H](NC(=O)[C@H](CCCCN)NC(=O)[C@@H]1CCCN1C(=O)[C@H](CCC(=O)O)NC(=O)[C@H](CO)NC(=O)[C@H](CCCNC(=N)N)NC(=O)[C@H](C)NC(=O)[C@H](CS)NC(=O)CNC(=O)[C@@H](NC(=O)[C@@H]1CCCN1C(=O)[C@H](CC(N)=O)NC(=O)[C@@H](NC(=O)CCCC[C@@H]1SC[C@@H]2NC(=O)N[C@@H]21)C(C)C)[C@@H](C)O)C(=O)N[C@@H](CO)C(N)=O
